Measured values as given in article PMC7983947, “ADP-Ribosylation Regulates the Signaling Function of IFN-γ” (Frontiers in Immunology, 2021).

T1: recombinant IFNR1-Fc (extracellular domain of interferon receptor 1) (UniProt P15261)
T1 sequence: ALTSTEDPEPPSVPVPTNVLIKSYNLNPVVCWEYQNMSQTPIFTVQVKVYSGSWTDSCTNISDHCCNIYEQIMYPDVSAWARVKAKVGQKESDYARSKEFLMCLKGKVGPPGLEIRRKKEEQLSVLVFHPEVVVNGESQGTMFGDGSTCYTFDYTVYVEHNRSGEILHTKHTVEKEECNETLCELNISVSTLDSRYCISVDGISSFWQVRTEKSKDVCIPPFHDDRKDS

B1: ADP-ribosylated IFN-γ (ligand)
chain: HGTVIESLESLNNYFNSSGIDVEEKSLFLDIWRNWQKDGDMKILQSQIISFYLRLFEVLKDNQAISNNISVIESHLITTFFSNSKAKKDAFMSIAKFEVNNPQVQRQAFNELIRVVHQLLPESSLRKRKRSRC
modifications: ADP-ribosyl-arginine at R128
B2: recombinant murine IFN-γ (ligand, UniProt P01580 23-155, looked up)
chain: B1 chain
notes: interferon gamma, murine, recombinant; also called interferon-gamma; native IFN-γ homodimer; source: bought: Immunotools

Experiments:
[1] = target: T1, recombinant IFNR1-Fc (extracellular domain of interferon receptor 1)
[2] = target: the molecule itself; assay: non-reducing SDS-PAGE; murine serum spiked with IFN-γ, incubated with shed ARTC2.2 and 32P-NAD+; gel run under non-reducing conditions, autoradiography

| Binder | phosphorylation of STAT1 in primary peritoneal macrophages (flow cytometry, serial titrations); loss of potency against unmodified IFN-γ; restored by de-ADP-ribosylation with ARH1 [1] | binding result [2] |
| --- | --- | --- |
| B1 | 4 fold | – |
| B2 | – | binds |
